How the values were obtained:
[1] = tested on: CTG-0943 PDX tumors; test: Pancreatic adenocarcinoma PDX model (APP-NRG1); assay type: in vivo, mice
Procedure: Mice bearing CTG-0943 PDX tumors (5-8 mice per group) were treated with indicated agents (FIG. 8A). Representative H&E-stained slides of a vehicle-treated tumor (FIG. 8B). Tumor volume, results represent the mean±SEM. […] Change in the volume of individual tumors (vehicle: day 20; treated groups: day 31) compared with day 0(%) (FIG. 8D). Western blot analysis of vehicle, and afatinib and seribantumab-treated tumors. Tumor residues extracted day 24 for vehicle-, day 31 for seribantumab-, and day 32 for afatinib-treated groups. Antibody reactivity with human (H) and/or mouse (M) proteins is indicated.
Models of isogenic pancreatic cancer cells with NRG1 fusions by lentiviral-mediated cDNA expression of ATP1B1-NRG1 and SLC3A2-NRG1 fusions in immortalized human pancreatic ductal cells (H6c7) were developed. […] Western blotting analysis was used to evaluate protein phosphorylation and expression. The presence of NRG1 fusions was confirmed by reverse transcription polymerase chain reaction (RT-PCR) and next-generation sequencing (NGS).
There was no regression of afatinib-treated pancreatic PDX tumors. […] This was confirmed using a human-specific GAPH antibody.

[2] = in vivo
From the text: Patients are monitored during weekly dosing for a period of 28 days (i.e., throughout C1W1, C1W2, C1W3, and C1W4) for the occurrence of DLTs. […] The grading of AEs is based on the “common terminology criteria for adverse events” (CTCAE) version 5.0. Hematologic toxicity includes febrile neutropenia, neutropenic infection, grade 4 neutropenia >7 days, grade ≥3 thrombocytopenia for >7 days, grade ≥3 thrombocytopenia with clinically significant bleeding, grade 4 thrombocytopenia, and grade ≥3 anemia >7 days.
In the current study, 6 patients were treated in a safety run-in phase with an induction regimen consisting of a 3,000 mg loading dose followed by 2,000 mg weekly for 3 weeks. […] Enrollment continued under Induction Regimen 2 consisting of 3,000 mg once weekly for 4 weeks. The next 6 patients enrolled were treated with Induction Regimen 2.
Upon review, the next 6 patients enrolled and initiated treatment with Induction Regimen 2.
Upon review, all subsequently enrolled patients treated under Protocol Version 2.0 initiated treatment with Induction Regimen 2.

[3] = tested on: EGFR, HER2, HER3, HER4, PI3K, mTOR and MAPK pathways in LUAD-0061AS3 cells; test: Western blotting of protein phosphorylation; assay type: cell-based, human; conditions: serum-starved, 1 hour
Procedure: (§1) Whole-cell extracts were prepared after all treatments and subjected to SDS-PAGE, followed by immunoblotting for the phosphorylated (p) or total (t) proteins shown in each panel. All Western blotting studies were conducted at least two times and representative immunoblots of phosphorylated (p) and total (t) proteins are shown.
(§2) These events likely culminate in inhibition of growth and impaired survival.

[4] = tested on: EGFR, HER2, HER3, HER4, PI3K, mTOR and MAPK pathways in HBECp53-CD74-NRG1 cells; test: Western blotting of protein phosphorylation; assay type: cell-based, human; conditions: serum-starved, 1 hour
Procedure: as §1, §2

[5] = tested on: MCF-7 cells; test: AlamarBlue viability dose-response (growth inhibition); assay type: cell-based, human; conditions: 96 hours
Procedure: (§3) Expression of […] (FIG. 1A) or SLC3A2-NRG1 (FIG. 2B) fusions in MDA-MB-175-VII and LUAD-0061AS3 cells, respectively, was determined by RT-PCR. The HBECp53 (NRG1 fusion negative) and HBECp53-SLC3A2-NRG1 cells were used as negative and positive controls, respectively. […] Viability results represent the mean±SEM of 2-5 independent experiments in which each condition was assayed in triplicate determinations. Viability data were analyzed by nonlinear regression and the IC50 values for growth inhibition and the 95% confidence interval were determined with GraphPad Prism 8. […] Results represent the mean±SD for one experiment in which each condition was assayed in duplicate.
(§4) For the time-course experiments, cells were plated at a density of 5,000 (HCC-95) or 10,000 (all others) cells per well in 12-well tissue culture plates, and then treated 24 hours later (time 0) with the respective agents. […] Cells were trypsinized and counted at the relevant time-point shown on the graphs. For dose-response studies, cells were plated at a density of 7,500-10,000 cells in white clear-bottom 96-well plates in a volume of […] complete growth media and […] chemicals added at 10× concentration (to achieve 1× concentration) in a final volume of […]. After 96-hour incubation, […] AlamarBlue cell viability reagent was added to achieve a final concentration of 10%. AlamarBlue is a cell permeable […] dye that is reduced when it enters the mitochondria and emits fluorescence at a different wavelength (Gloeckner H, J. Immunol. Methods 2001; 252:131-8). Fluorescence was measured (excitation, 530 nm and emission, 585 nm) using a […] Spectramax M2 Fluorescence Plate Reader, as described previously (Somwar R, J. Biomol. Screen 2009; 14:1176-84). In each experiment, background fluorescence was determined in cells treated with […] of the 20S proteasome inhibitor, carfilzomib, which is toxic to most cells at high concentrations, and was subtracted from all values. There were 3-4 replicates of each condition. Relative IC50 values and 95% confidence interval values were determined by nonlinear regression analysis using GraphPad Prism 8 software using either a variable slope model or in cases where inhibition was only partial, a three-parameter fit was used. […] Each condition was assayed in triplicate in 2-5 independent experiments.
(§5) Cells expressing NRG1 fusions rely on activation of HER3 for growth and survival. […] The estimated IC50 values obtained for growth inhibition are determined.

[6] = tested on: MDA-MB-175-VII cells; test: as above; assay type: cell-based, human; conditions: 96 hours
Procedure: as §3, §4, §5

[7] = tested on: LUAD-0061AS3 cells; test: as above; assay type: cell-based, human; conditions: 96 hours
Procedure: as §3, §4, §5

[8] = tested on: HBECp53 cells; test: as above; assay type: cell-based, human; conditions: 96 hours
Procedure: as §3, §4, §5

[9] = n=847 patients treated; cited from earlier work
[10] = 5 mg or 10 mg twice weekly seribantumab

B1: seribantumab: anti-ERBB3 (HER3) fully human monoclonal antibody; heavy and light chains SEQ ID NOs: 12 and 13 (antibody)
heavy: EVQLLESGGGLVQPGGSLRLSCAASGFTFSHYVMAWVRQAPGKGLEWVSSISSSGGWTLYADSVKGRFTISRDNSKNTLYLQMNSLRAEDTAVYYCTRGLKMATIFDYWGQGTLVTVSSASTKGPSVFPLAPCSRSTSESTAALGCLVKDYFPEPVTVSWNSGALTSGVHTFPAVLQSSGLYSLSSVVTVPSSNFGTQTYTCNVDHKPSNTKVDKTVERKCCVECPPCPAPPVAGPSVFLFPPKPKDTLMISRTPEVTCVVVDVSHEDPEVQFNWYVDGVEVHNAKTKPREEQFNSTFRVVSVLTVVHQDWLNGKEYKCKVSNKGLPAPIEKTISKTKGQPREPQVYTLPPSREEMTKNQVSLTCLVKGFYPSDIAVEWESNGQPENNYKTTPPMLDSDGSFFLYSKLTVDKSRWQQGNVFSCSVMHEALHNHYTQKSLSLSPGK
light: QSALTQPASVSGSPGQSITISCTGTSSDVGSYNVVSWYQQHPGKAPKLIIYEVSQRPSGVSNRFSGSKSGNTASLTISGLQTEDEADYYCCSYAGSSIFVIFGGGTKVTVLGQPKAAPSVTLFPPSSEELQANKATLVCLVSDFYPGAVTVAWKADGSPVKVGVETTKPSKQSNNKYAASSYLSLTPEQWKSHRSYSCRVTHEGSTVEKTVAPAECS
In the case of B1, the tumor growth [1, 10] is reported as “Tumor growth inhibition was observed”, the tumor shrinkage [1, 10] is reported as “up to 55%” and the “tumor shrinkage, range” value [1, 10] is reported as 23-77%. The “proteins in residual tumors by Western blotting” value ([1]; seribantumab-treated tumors, end of study (day 31)) was “Loss of phosphorylated and total EGFR, HER2 and HER3, cyclin D1”, the “efficacy compared with afatinib” value ([1]; two doses of seribantumab vs afatinib 5 mg/kg QD) was “more effective than afatinib” and the TEAEs [2] was “Grade 1 diarrhea, nausea, fatigue, rash and pruritis”. For the same molecule, the “phosphorylation of EGFR, HER2, HER3, HER4, AKT, and STAT3” value [3] was “almost complete inhibition”, the “phosphorylation of ERK1/2” value [3] was “less sensitive” and the HER3 phosphorylation [4] was “completely inhibited”. The “phosphorylation of AKT, p70S6K, and STAT3” value [4] was “almost completely inhibited”, the IC50 ([5]; AlamarBlue) was 45.2 µM and the effect on growth ([5]; no NRG1 fusion) was “minimal effect”. For the same molecule, the IC50 ([6]; AlamarBlue) was 0.02 µM, the effect on growth ([6]; dose-response) was “reduced growth in a dose-dependent manner” and the IC50 ([7]; AlamarBlue) was 1.4 µM. The effect on growth ([7]; dose-response) was “reduced growth in a dose-dependent manner”, the IC50 ([8]; AlamarBlue) was 203 µM and the effect on growth ([8]; no NRG1 fusion) was “minimal effect”. The “grade of infusion related reactions” value [9] was “Grade 1 or 2” and the “patients experiencing an infusion related reaction” value [9] was < 1%.
